B1: TIA1 (parent)
chain: TYECRCIGEEKEMWNFGEKYARF
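Also: lentivirally expressed fusions sorted by FACS into six bins by GFP to DsRed ratio, PSI derived from sequencing read proportions per bin multiplied by bin number.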

This data set covers variants of B1. Briefly: protein stability index of a GFP-peptide fusion (GPS, HEK-293T) (PSI 1-6); higher = more stable. Conditions: c terminus: native.
TYECRCIGEEKEMWNTGEKYARF [F16T]: the protein stability index is 3.

With TYECRCIGEEKEMWNWGEKYARF [F16W], the protein stability index was 1.77.

As to TYECRCIGEEKEMWNVGEKYARF [F16V], the protein stability index turned out to be 2.45.

As to TYECRCIGEEKEMWNLGEKYARF [F16L], the protein stability index worked out at 1.74.

With TYECRCIGEEKEMWNHGEKYARF [F16H], the protein stability index was determined as 2.26.

Consider TYECRCIGEEKEMWNNGEKYARF [F16N], for which the protein stability index worked out at 1.85.

On to TYECRCIGEEKEMWNRGEKYARF [F16R], for which the protein stability index worked out at 2.14.

As to TYECRCIGEEKEMWNAGEKYARF [F16A], the protein stability index came out at 2.43.

Take TYECRCIGEEKEMWNMGEKYARF [F16M]: the protein stability index is 3.

TYECRCIGEEKEMWNSGEKYARF [F16S]: the protein stability index is 2.66.

Regarding TYECRCIGEEKEMWNPGEKYARF [F16P], the protein stability index came out at 1.91.

As to TYECRCIGEEKEMWNDGEKYARF [F16D], the protein stability index was found to be 2.78.

Take TYECRCIGEEKEMWNEGEKYARF [F16E]: the protein stability index came to 2.9.

TYECRCIGEEKEMWNGGEKYARF [F16G]: the protein stability index worked out at 2.29.

In the case of TYECRCIGEEKEMWNIGEKYARF [F16I], the protein stability index came to 1.57.

Consider TYECRCIGEEKEMWNKGEKYARF [F16K], for which the protein stability index stood at 2.44.

With TYECRCIGEEKEMWNCGEKYARF [F16C], the protein stability index was 2.42.

For TYECRCIGEEKEMWNYGEKYARF [F16Y], the protein stability index came out at 2.2.

Take TYECRCIGEEKEMTNFGEKYARF [W14T]: the protein stability index was determined as 2.22.

On to TYECRCIGEEKEMINFGEKYARF [W14I], for which the protein stability index was determined as 2.28.

With TYECRCIGEEKEMNNFGEKYARF [W14N], the protein stability index worked out at 2.1.

As to TYECRCIGEEKEMFNFGEKYARF [W14F], the protein stability index was determined as 2.39.

Consider TYECRCIGEEKEMMNFGEKYARF [W14M], for which the protein stability index was found to be 2.27.

Consider TYECRCIGEEKEMENFGEKYARF [W14E], for which the protein stability index stood at 2.51.

Regarding TYECRCIGEEKEMSNFGEKYARF [W14S], the protein stability index came to 2.98.

For TYECRCIGEEKEMVNFGEKYARF [W14V], the protein stability index amounted to 2.34.

Take TYECRCIGEEKEMKNFGEKYARF [W14K]: the protein stability index came out at 1.6.

For TYECRCIGEEKEMLNFGEKYARF [W14L], the protein stability index came to 1.64.

Take TYECRCIGEEKEMDNFGEKYARF [W14D]: the protein stability index came to 2.61.

As for TYECRCIGEEKEMYNFGEKYARF [W14Y], the protein stability index was determined as 2.65.

With TYECRCIGEEKEMCNFGEKYARF [W14C], the protein stability index worked out at 2.17.

For the variant TYECRCIGEEKEMGNFGEKYARF [W14G], the protein stability index amounted to 2.88.

On to TYECRCIGEEKEMHNFGEKYARF [W14H], for which the protein stability index was found to be 2.49.

In the case of TYECRCIGEEKEMANFGEKYARF [W14A], the protein stability index was 2.14.

TYECRCIGEEKEMQNFGEKYARF [W14Q]: the protein stability index was determined as 2.24.

TYECRCIGEEKEMPNFGEKYARF [W14P]: the protein stability index was 2.31.

For the variant TYECRCIGEEKESWNFGEKYARF [M13S], the protein stability index was determined as 1.98.

With TYECRCIGEEKEIWNFGEKYARF [M13I], the protein stability index stood at 2.07.

For TYECRCIGEEKEFWNFGEKYARF [M13F], the protein stability index came out at 1.23.

With TYECRCIGEEKECWNFGEKYARF [M13C], the protein stability index stood at 2.14.

On to TYECRCIGEEKEAWNFGEKYARF [M13A], for which the protein stability index is 1.74.

Turning to TYECRCIGEEKERWNFGEKYARF [M13R], the protein stability index was determined as 2.11.

Regarding TYECRCIGEEKENWNFGEKYARF [M13N], the protein stability index came to 2.31.

Take TYECRCIGEEKETWNFGEKYARF [M13T]: the protein stability index was determined as 2.18.

TYECRCIGEEKEKWNFGEKYARF [M13K]: the protein stability index came to 1.87.

In the case of TYECRCIGEEKEWWNFGEKYARF [M13W], the protein stability index came to 3.09.

TYECRCIGEEKEHWNFGEKYARF [M13H]: the protein stability index was 2.24.

On to TYECRCIGEEKEVWNFGEKYARF [M13V], for which the protein stability index was determined as 2.03.

Regarding TYECRCIGEEKELWNFGEKYARF [M13L], the protein stability index came to 2.48.

As for TYECRCIGEEKEDWNFGEKYARF [M13D], the protein stability index turned out to be 2.19.

For TYECRCIGEEKEQWNFGEKYARF [M13Q], the protein stability index came out at 1.71.

With TYECRCIGEEKEPWNFGEKYARF [M13P], the protein stability index came to 2.19.

For TYECRCIGEEKEGWNFGEKYARF [M13G], the protein stability index is 2.61.

Regarding TYECRCIGEEKEYWNFGEKYARF [M13Y], the protein stability index was 1.56.

In the case of TYECRCFGEEKEMWNFGEKYARF [I7F], the protein stability index was determined as 2.12.

Consider TYECRCYGEEKEMWNFGEKYARF [I7Y], for which the protein stability index stood at 2.3.

As for TYECRCNGEEKEMWNFGEKYARF [I7N], the protein stability index worked out at 2.66.

Consider TYECRCTGEEKEMWNFGEKYARF [I7T], for which the protein stability index was 2.98.

For TYECRCPGEEKEMWNFGEKYARF [I7P], the protein stability index was 3.87.

For TYECRCDGEEKEMWNFGEKYARF [I7D], the protein stability index was determined as 2.87.

Consider TYECRCSGEEKEMWNFGEKYARF [I7S], for which the protein stability index came to 2.16.

In the case of TYECRCVGEEKEMWNFGEKYARF [I7V], the protein stability index was found to be 1.76.

As for TYECRCMGEEKEMWNFGEKYARF [I7M], the protein stability index came out at 1.72.

As for TYECRCHGEEKEMWNFGEKYARF [I7H], the protein stability index was 3.01.

Take TYECRCQGEEKEMWNFGEKYARF [I7Q]: the protein stability index was determined as 3.02.

Turning to TYECRCKGEEKEMWNFGEKYARF [I7K], the protein stability index came out at 2.18.

Regarding TYECRCGGEEKEMWNFGEKYARF [I7G], the protein stability index was 3.

On to TYECRCRGEEKEMWNFGEKYARF [I7R], for which the protein stability index was determined as 1.8.

Turning to TYECRCEGEEKEMWNFGEKYARF [I7E], the protein stability index worked out at 3.42.

Turning to TYECRCLGEEKEMWNFGEKYARF [I7L], the protein stability index was 1.98.

Consider TYECRCIGEEKEMWLFGEKYARF [N15L], for which the protein stability index stood at 2.37.

Take TYECRCIGEEKEMWDFGEKYARF [N15D]: the protein stability index amounted to 2.04.

As for TYECRCIGEEKEMWHFGEKYARF [N15H], the protein stability index was 2.33.

Consider TYECRCIGEEKEMWVFGEKYARF [N15V], for which the protein stability index worked out at 2.3.

For the variant TYECRCIGEEKEMWMFGEKYARF [N15M], the protein stability index worked out at 1.43.

Consider TYECRCIGEEKEMWSFGEKYARF [N15S], for which the protein stability index was determined as 2.13.

For TYECRCIGEEKEMWCFGEKYARF [N15C], the protein stability index came out at 1.96.

For TYECRCIGEEKEMWIFGEKYARF [N15I], the protein stability index is 2.02.

Take TYECRCIGEEKEMWKFGEKYARF [N15K]: the protein stability index is 1.86.

For TYECRCIGEEKEMWWFGEKYARF [N15W], the protein stability index was 2.77.

For the variant TYECRCIGEEKEMWEFGEKYARF [N15E], the protein stability index came to 2.37.

For TYECRCIGEEKEMWPFGEKYARF [N15P], the protein stability index stood at 2.25.

Regarding TYECRCIGEEKEMWGFGEKYARF [N15G], the protein stability index is 2.

With TYECRCIGEEKEMWTFGEKYARF [N15T], the protein stability index amounted to 1.92.

With TYECRCIGEEKEMWQFGEKYARF [N15Q], the protein stability index amounted to 1.42.

Regarding TYECRCIGEEKEMWYFGEKYARF [N15Y], the protein stability index came out at 1.56.

With TYECRCIGEEKEMWFFGEKYARF [N15F], the protein stability index stood at 2.46.

Regarding TYECRCIGEAKEMWNFGEKYARF [E10A], the protein stability index came out at 2.85.

In the case of TYECRCIGEWKEMWNFGEKYARF [E10W], the protein stability index worked out at 2.52.

TYECRCIGEHKEMWNFGEKYARF [E10H]: the protein stability index was 2.49.

Turning to TYECRCIGEQKEMWNFGEKYARF [E10Q], the protein stability index amounted to 1.71.

As for TYECRCIGEPKEMWNFGEKYARF [E10P], the protein stability index was determined as 2.12.

On to TYECRCIGEIKEMWNFGEKYARF [E10I], for which the protein stability index stood at 2.56.

In the case of TYECRCIGELKEMWNFGEKYARF [E10L], the protein stability index turned out to be 2.25.

Consider TYECRCIGEDKEMWNFGEKYARF [E10D], for which the protein stability index stood at 1.99.

Consider TYECRCIGETKEMWNFGEKYARF [E10T], for which the protein stability index turned out to be 1.43.

Take TYECRCIGECKEMWNFGEKYARF [E10C]: the protein stability index is 2.25.

The record behind these values is the supplement of paper PMC10567573.
